Laboratory results taken from patent US20240317834A1, “COMPOSITIONS AND METHODS FOR NEUROLOGICAL DISEASES” (CODA BIOTHERAPEUTICS, INC., priority 2020, published 2024).
Changes are numbered by the printed parent chain. Names may count otherwise.

System: Lenti-X 293T cells
Assay: YFP fluorescence quenching anion reporter plate reader assay of engineered receptors stimulated with acetylcholine or a non-native ligand
Assay type: cell-based
Settings: for percent quench of YFP fluorescence, 10 uM ach: acetylcholine 10 uM; for percent quench of YFP fluorescence, 100 uM ach: acetylcholine 100 uM; for percent quench of YFP fluorescence, 1 mM ach: acetylcholine 1 mM; for percent quench of YFP fluorescence, 3 mM ach: acetylcholine 3 mM
Outline: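 YFP quench was followed for about 1 min 43 s after ligand delivered in iodide-based ECS, pH 7.2. Values are end-of-read fluorescence (last 10 s) divided by the pre-ligand baseline (15 s). Cells were LX293T, transfected with receptor DNA a day before the assay.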

B1: CODA407: engineered chimeric LGIC receptor, Y210F in SEQ ID NO: 33 (protein)
chain: MRCSPGGVWLALAASLLHVSLQGEFQRKLYKELVKNYNPLERPVANDSQPLTVYFSLSLLQIMDVDEKNQVLTTNIWLQMSWTDHYLQWNVSEYPGVKTVRFPDGQIWKPDILLYNSADERFDATFHTNVLVNSSGHCQYLPPGIFKSSCPMDLKNFPMDVQTCKLKFGSWSYGGWSLDLQMQEADISGYIPNGEWDLVGIPGKRSERFFECCKEPYPDVTFTVTMRRRMGYYLIQMYIPSLLIVILSWISFWINMDAAPARVGLGITTVLTMTTQSSGSRASLPKVSYVKAIDIWMAVCLLFVFSALLEYAAVNFVSRQHKELLRFRRKRRHHKSPMLNLFQEDEAGEGRFNFSAYGMGPACLQAKDGISVKGANNSNTTNPPPAPSKSPEEMRKLFIQRAKKIDKISRIGFPMAFLIFNMFYWIIYKIVRREDVHNQ
modifications: synthetic sequence of chimeric LGIC
1 nM CNL001, first column
  YFP fluorescence quenching using CNL001: −10.845%
1 nM CNL001, second column
  YFP fluorescence quenching using CNL001: −2.629%
3 nM brd
  YFP fluorescence quenching using TC-5619/Bradanicline: −0.53%
3 nM var, first column
  YFP fluorescence quenching using Varenicline: 2.441
3 nM var, second column
  YFP fluorescence quenching using Varenicline: 7.326
10 nM CNL001, first column
  YFP fluorescence quenching using CNL001: 4.66%
10 nM CNL001, second column
  YFP fluorescence quenching using CNL001: 12.246%
30 nM brd
  YFP fluorescence quenching using TC-5619/Bradanicline: 8.71%
30 nM fac
  YFP fluorescence quenching using Facinicline: −21.94
30 nM var, first column
  YFP fluorescence quenching using Varenicline: 1.275
30 nM var, second column
  YFP fluorescence quenching using Varenicline: 12.96
50 nM CNL001, first column
  YFP fluorescence quenching using CNL001: 29.307%
50 nM CNL001, second column
  YFP fluorescence quenching using CNL001: 41.78%
50 nM abt
  YFP fluorescence quenching using ABT-126: −13.07%
100 nM CNL001, first column
  YFP fluorescence quenching using CNL001: 50.654%
100 nM CNL001, second column
  YFP fluorescence quenching using CNL001: 62.054%
100 nM CNL002
  YFP fluorescence quenching using CNL002: −12.47%
100 nM abt
  YFP fluorescence quenching using ABT-126: 0.1%
100 nM azd0328
  YFP fluorescence quenching using AZD-0328: 0.85%
300 nM abt
  YFP fluorescence quenching using ABT-126: 5.97%
300 nM azd0328
  YFP fluorescence quenching using AZD-0328: 1.25%
300 nM brd
  YFP fluorescence quenching using TC-5619/Bradanicline: 76.26%
300 nM fac
  YFP fluorescence quenching using Facinicline: −22.46
300 nM var, first column
  YFP fluorescence quenching using Varenicline: 13.119
300 nM var, second column
  YFP fluorescence quenching using Varenicline: 2.355
500 nM var, first column
  YFP fluorescence quenching using Varenicline: 11.539
500 nM var, second column
  YFP fluorescence quenching using Varenicline: 6.571
1 uM CNL001, first column
  YFP fluorescence quenching using CNL001: 81.742%
1 uM CNL001, second column
  YFP fluorescence quenching using CNL001: 81.304%
1 uM CNL002
  YFP fluorescence quenching using CNL002: −3.93%
1 uM abt
  YFP fluorescence quenching using ABT-126: 50.23%
1 uM tc6987
  YFP fluorescence quenching using TC-6987: −15.22
1 uM var, first column
  YFP fluorescence quenching using Varenicline: 8.397
1 uM var, second column
  YFP fluorescence quenching using Varenicline: 7.309
10 uM tc6987
  YFP fluorescence quenching using TC-6987: −19.89
30 uM CNL002
  YFP fluorescence quenching using CNL002: 80.97%
30 uM azd0328
  YFP fluorescence quenching using AZD-0328: 82.08%
30 uM fac
  YFP fluorescence quenching using Facinicline: 82.63
500 uM tc6987
  YFP fluorescence quenching using TC-6987: −33.32
  percent quench of YFP fluorescence, 10 uM ach: −3.75%
  percent quench of YFP fluorescence, 100 uM ach: −1.6%
  percent quench of YFP fluorescence, 1 mM ach: 71.65%
  percent quench of YFP fluorescence, 3 mM ach: 79.09%

B2: CODA409: engineered chimeric LGIC receptor, Y210W in SEQ ID NO: 33 (protein)
chain: B1 chain with F210W
modifications: synthetic sequence of chimeric LGIC
1 nM CNL001, first column
  YFP fluorescence quenching using CNL001: −8.914%
1 nM CNL001, second column
  YFP fluorescence quenching using CNL001: −14.319%
1 nM brd
  YFP fluorescence quenching using TC-5619/Bradanicline: −13.45%
3 nM brd
  YFP fluorescence quenching using TC-5619/Bradanicline: −0.64%
3 nM var, first column
  YFP fluorescence quenching using Varenicline: 7.776
3 nM var, second column
  YFP fluorescence quenching using Varenicline: −2.964
10 nM CNL001, first column
  YFP fluorescence quenching using CNL001: −1.444%
10 nM CNL001, second column
  YFP fluorescence quenching using CNL001: 4.393%
10 nM brd
  YFP fluorescence quenching using TC-5619/Bradanicline: 37.3%
30 nM brd
  YFP fluorescence quenching using TC-5619/Bradanicline: 76.36%
30 nM fac
  YFP fluorescence quenching using Facinicline: −10.93
30 nM var, first column
  YFP fluorescence quenching using Varenicline: −5.568
30 nM var, second column
  YFP fluorescence quenching using Varenicline: 3.024
50 nM CNL001, first column
  YFP fluorescence quenching using CNL001: 11.897%
50 nM CNL001, second column
  YFP fluorescence quenching using CNL001: 11.434%
50 nM abt
  YFP fluorescence quenching using ABT-126: 8.23%
100 nM CNL001, first column
  YFP fluorescence quenching using CNL001: 12.719%
100 nM CNL001, second column
  YFP fluorescence quenching using CNL001: 16.053%
100 nM CNL002
  YFP fluorescence quenching using CNL002: −14.92%
100 nM abt
  YFP fluorescence quenching using ABT-126: 55.53%
100 nM azd0328
  YFP fluorescence quenching using AZD-0328: −6.57%
100 nM brd
  YFP fluorescence quenching using TC-5619/Bradanicline: 72.72%
300 nM abt
  YFP fluorescence quenching using ABT-126: 74.82%
300 nM azd0328
  YFP fluorescence quenching using AZD-0328: −4.84%
300 nM brd
  YFP fluorescence quenching using TC-5619/Bradanicline: 75.47%
300 nM fac
  YFP fluorescence quenching using Facinicline: −5.82
300 nM var, first column
  YFP fluorescence quenching using Varenicline: 2.815
300 nM var, second column
  YFP fluorescence quenching using Varenicline: 3.06
500 nM abt
  YFP fluorescence quenching using ABT-126: 77.39%
500 nM var, first column
  YFP fluorescence quenching using Varenicline: 1.766
500 nM var, second column
  YFP fluorescence quenching using Varenicline: 2.819
1 uM CNL001, first column
  YFP fluorescence quenching using CNL001: 14.077%
1 uM CNL001, second column
  YFP fluorescence quenching using CNL001: 15.495%
1 uM CNL002
  YFP fluorescence quenching using CNL002: −0.85%
1 uM abt
  YFP fluorescence quenching using ABT-126: 77.77%
1 uM brd
  YFP fluorescence quenching using TC-5619/Bradanicline: 78.73%
1 uM tc6987
  YFP fluorescence quenching using TC-6987: 62.82
1 uM var, first column
  YFP fluorescence quenching using Varenicline: 1.844
1 uM var, second column
  YFP fluorescence quenching using Varenicline: −4.059
3 uM abt
  YFP fluorescence quenching using ABT-126: 69.33%
10 uM abt
  YFP fluorescence quenching using ABT-126: 74.79%
10 uM fac
  YFP fluorescence quenching using Facinicline: 60.97
10 uM tc6987
  YFP fluorescence quenching using TC-6987: 78.66
30 uM CNL002
  YFP fluorescence quenching using CNL002: 29.62%
30 uM abt
  YFP fluorescence quenching using ABT-126: 75.61%
30 uM azd0328
  YFP fluorescence quenching using AZD-0328: 81.64%
30 uM fac
  YFP fluorescence quenching using Facinicline: 57.77
50 uM abt
  YFP fluorescence quenching using ABT-126: 75.72%
100 uM abt
  YFP fluorescence quenching using ABT-126: 78.52%
500 uM tc6987
  YFP fluorescence quenching using TC-6987: 70.35
  percent quench of YFP fluorescence, 10 uM ach: −5.43%
  percent quench of YFP fluorescence, 100 uM ach: 17.14%
  percent quench of YFP fluorescence, 1 mM ach: 78.84%
  percent quench of YFP fluorescence, 3 mM ach: 78.55%

B3: CODA534: engineered chimeric LGIC receptor, L131S, S172D in SEQ ID NO: 33 (protein)
chain: B1 chain with L131S, S172D, F210Y
modifications: synthetic sequence of chimeric LGIC
1 nM CNL001, first column
  YFP fluorescence quenching using CNL001: 23.438%
1 nM CNL001, second column
  YFP fluorescence quenching using CNL001: 28.59%
1 nM brd
  YFP fluorescence quenching using TC-5619/Bradanicline: −1.13%
3 nM brd
  YFP fluorescence quenching using TC-5619/Bradanicline: −3.83%
10 nM CNL001, first column
  YFP fluorescence quenching using CNL001: 56.882%
10 nM CNL001, second column
  YFP fluorescence quenching using CNL001: 56.777%
10 nM brd
  YFP fluorescence quenching using TC-5619/Bradanicline: −3.78%
30 nM fac
  YFP fluorescence quenching using Facinicline: −23.44
50 nM CNL001, first column
  YFP fluorescence quenching using CNL001: 65.044%
50 nM CNL001, second column
  YFP fluorescence quenching using CNL001: 67.373%
50 nM abt
  YFP fluorescence quenching using ABT-126: −11.96%
100 nM CNL001, first column
  YFP fluorescence quenching using CNL001: 68.666%
100 nM CNL001, second column
  YFP fluorescence quenching using CNL001: 70.357%
100 nM CNL002
  YFP fluorescence quenching using CNL002: 14.26%
100 nM abt
  YFP fluorescence quenching using ABT-126: −10.72%
100 nM azd0328
  YFP fluorescence quenching using AZD-0328: −9.32%
100 nM brd
  YFP fluorescence quenching using TC-5619/Bradanicline: −2.03%
300 nM abt
  YFP fluorescence quenching using ABT-126: 11.65%
300 nM azd0328
  YFP fluorescence quenching using AZD-0328: 4.94%
300 nM fac
  YFP fluorescence quenching using Facinicline: 2.75
1 uM CNL001, first column
  YFP fluorescence quenching using CNL001: 73.019%
1 uM CNL001, second column
  YFP fluorescence quenching using CNL001: 73.527%
1 uM CNL002
  YFP fluorescence quenching using CNL002: 45.55%
1 uM abt
  YFP fluorescence quenching using ABT-126: −3.06%
1 uM brd
  YFP fluorescence quenching using TC-5619/Bradanicline: 1.68%
1 uM tc6987
  YFP fluorescence quenching using TC-6987: −20.99
10 uM fac
  YFP fluorescence quenching using Facinicline: 69.71
10 uM tc6987
  YFP fluorescence quenching using TC-6987: −27.62
30 uM CNL002
  YFP fluorescence quenching using CNL002: 64.93%
30 uM azd0328
  YFP fluorescence quenching using AZD-0328: 60.61%
30 uM fac
  YFP fluorescence quenching using Facinicline: 61.44
500 uM tc6987
  YFP fluorescence quenching using TC-6987: −24.22
TC-6683 30 nM
  percent quench of YFP fluorescence, 30 nM TC-6683: −22.464%
TC-6683 300 nM
  percent quench of YFP fluorescence, 300 nM TC-6683: −23.976%
TC-6683 3 uM
  percent quench of YFP fluorescence, 3 uM TC-6683: −24.897%
TC-6683 30 uM
  percent quench of YFP fluorescence, 30 uM TC-6683: −20.474%
TC-6683 100 uM
  percent quench of YFP fluorescence, 100 uM TC-6683: −22.253%
  percent quench of YFP fluorescence, 10 uM ach: −11.3%
  percent quench of YFP fluorescence, 100 uM ach: −27.53%
  percent quench of YFP fluorescence, 1 mM ach: 2.84%
  percent quench of YFP fluorescence, 3 mM ach: 14.65%
